Experiment: soluble on expression in E. coli; label from the status in PepcDB or PDB records
For “MSLRQRLTRRDPVSRLPNREQFQSDLYDLADENPGERRVLVLVDAVDMTVAHELTLAMGLAPFETIVRFLAQQLLAYLGRHVRVYHVSVKRFGFLLPAAPGIERFLESLVRRLRRQPPGLELPMIPGVCAGTVEFSTDRDAVPDVLRKAMFALELATLNRSTWAPYDVVRDQAYRRAFNLASDISEALDSGQIYLMFQPRFALPDGAQVSAEALIRWDHPWLGPISPAEFIPVMERNALIHRVTHWVINAVLGKLQAWSDGEVQRLSINLSPQDFEDQDIADVLKAACRRHGIEPHRLEVEITEGAWLRSNPRVLDQLSKIRALGMDVAIDDFGTGYSNFAYLHQIPANVVKLDKSMVTDLESSAQHQKITRSVIALARELGYRTVAEGIESFKCLQMLRTFGCDEAQGYFLARPMVQEKFLARSAAQRFPLQEGHHHHHH”, the “soluble on expression in E. coli” value was “soluble”. For “RVQLLESGAELMKPGASVQISCKATGYTFSEYWIEWVKERPGHGLEWIGEILPGSGRTNYREKFKGKATFTADTSSNTAYMQLSSLTSEDSAVYYCTRGYSSMDYWGQGTSVTVSAAKTTPPSVYPLAPGCGDTTGSSVTLGCLVKGYFPESVTVTWNSGSLSSSVHTFPALLQSGLYTMSSSVTVPSSTWPSQTVTCSVAHPASSTTVDKKLEPSGPI”, the “soluble on expression in E. coli” value was “soluble”. For “MGLKAINTSLSKNDLAHLGAGEVGYIRKMRSEEVSRCFPEAPEMGPGIDLWALFGADGTPILLTDNRSSTFFKAAEDDLRTVSLH”, the “soluble on expression in E. coli” value was “not soluble”. For “AESHWCYEVQAESSNYPCLVPVKWGGNCQKDRQSPINIVTTKAKVDKKLGRFFFSGYDKKQTWTVQNNGHSVMMLLENKASISGGGLPAPYQAKQLHLHWSDLPYKGSEHSLDGEHFAMEMHIVHEKEKGTSRNVKEAQDPEDEIAVLAFLVEAGTQVNEGFQPLVEALSNIPKPEMSTTMAESSLLDLLPKEEKLRHYFRYLGSLTTPTCDEKVVWTVFREPIQLHREQILAFSQKLYYDKEQTVSMKDNVRPLQQLGQRTVIKS”, the “soluble on expression in E. coli” value was “soluble”. In the case of “MGSDKIHHHHHHMSLDNHYDVDAALDKALKDDFLRKATRRATDRLRNNKLAITEELGNWEEWRQVGERIRNHVVENLDYYLDMLIENVEKNGGHVHLAKTPEDGVRIVQEIFQKHGFKSVIKSKSMITEEIHLNPVLEKDGIEVVETDLAEYIIQIADEPPSHIIVPAMHKTREQIAKLFEPIAGHPLESDTPTLTKFAREQLREKFLTSKIGITGCNFAVADTGTITMVTNEGNGRLTSTMPEVQITMMGMERIVPSYKELSVLLNLLARSATGQRLSVYTTMITPPKREGDIDGPKEWHLVILDHNRSEILGDEDFRSSLRCIRCGACFNVCPVYRQVGGHAYGSVYSGPIGVVITPLLEQNYEKWGHLPYYSSLCAACSEACPVRIPLQDLIVKHRDRKVLKGYTSGVEKKIFKYYGYYFSHPKTLSKFVRLGSKFQFILMRNGRIASGPPPLSNWTNSKTLPPVAKQMFRDQWPELEKKLKTMQRGDQ”, the “soluble on expression in E. coli” value was “not soluble”. With “MSLKDITLQVALPKFGYKENVKSFVLEVIAKDSSFWNFFSGNEARKQIAVLVDNTAPKINIISNSYQIEQGGAGAVVFKADDANLDKVYIETNKGKIFKATPYVKEGYYAALIAWDARDEEFRAFVIATDKAGNISKERIRYYFVNRKYRVSNINLTDKFLDGKIENLANQYAPKDNNLNRYEKFKFVNETLRNSNEKLIHEITSKVPEEKIDNFDLNLFLPLKNGMKVADFADHRYYSYNGQFVSDSYHMGLDLASVAQAPIISNNAGKVVFAAENGIYGLNLIVYHGFGVYSLYGHCSSKNVDLDEMINKQSIIGKTGTSGLALGDHLHFGVLVQGVETRPEQWQDKKWIENNIYNVLNDGKKIILGKNEGHHHHHH” the “soluble on expression in E. coli” value was “not soluble”. In the case of “MIKLKTPNSMEIAEQPAVITYVPELNAFRGKFLGLSGYCDFVSDSIQGLQKEGELSLREYLEDCKAAGIEPYARTEKIKTFTLRYPESLSERLNNAAAQQQVSVNTYIIETLNERLNHL”, the “soluble on expression in E. coli” value was “not soluble”. For “MLIEGANSHGSGILLQRHGNTYVILTAYHVIEKGGQYTVKTVDGQRYAVRPSSIRRLPSVDLATLEIESNRDYTLATLGNSGEAVEGMPVFVAGFPAQEASVLGGIYQFTEGRLTANASRPIQDGYALVYSNPTLPGMSGGPVLDENGRLIGIHGSADIASTLVQEGSGASTVFVKRGFNLGIPIHTYLGLATPSRQTTVLPALASMKAADYFLAAEVAFRRKNFAAAIENYSQAIARNPNYSEAYLGRAVAQIFALVPNQDFDQLGEELGTKYLSRLTQGNPLLKDAFPPNPPTPLLETFMRTMAERPGTIQPDIAKAIALNPQYTEAYGVSSFLNLLLGNFGNAIAESERALALRPNNSDLQMIHSLALFLSGDFRRSIAVFDRLITANPQNTDYHLLRGVAAFMMGDYALSRPSWTALTQLTPRNPMPFALRGVTYLLEENFKASLPDLRQAAELYRQQGDMQSYNQMMQAIRQIESRLEHHHHHH”, the “soluble on expression in E. coli” value was “not soluble”. In the case of “DEPILSFSPKTYSFRQDGRIKEVSVFTYHKKYNPDKHYIYVVRILREGQIEPSFVFRTFDEFQELHNKLSIIFPLWKLPGFPNRMVLGRTHIKDVAAKRKIELNSYLQSLMNASTDVAECDLVCTFFHPLLRDEKAEGIA”, the “soluble on expression in E. coli” value was “soluble”. In the case of “MSLNYIEDIKNYIPFNEQEERDKELFLRCLNDFHDILTRDNTIAHLTSSAFAVNKERNKFLMIHHNIYNSWAWTGGHSDNEKDQLKVAIKELKEETGVKNPTPLLDKAFALDVLTVNGHIKRGKYVSSHLHLNLTYLIECSEDETLMLKEDENSGVMWIPFNEISKYCSEPHMIPIYEKLINKLKTQSKEGHHHHHH”, the “soluble on expression in E. coli” value was “soluble”. For “MGNQAGSKTKLVIIQGPTASGKSELAVRLAEACGGDVVNADSMQVYRGMDIGTAKPSPELVARVPHHLYDIVDPDVNFTAADYRREAGRVITEIHSRGKRPILVGGTGLYIKTLIGGLAPSPGADDTIRAELEEDARSEGAAALHDRLAQVDPAAAARLHPNDRVRIVRALEVFLMTGKPLSEFQEEHRFADEPYDCLKLGISVERDDLYRRINERVNRMFAEGFVEEVSGLLNAGYSPDLKAMGAIGYKEVCAYLAGTCSLDEARELVQRNTRRYAKRQLTWFRKDPAIKWVEYPANFDSISTIAMKFFGLEHHHHHH”, the “soluble on expression in E. coli” value was “not soluble”. In the case of “MKMTSRKLSDILKKRLQNDSWSFHFDREKDSLRIEDKNTGKGITLELPGIIAKWEQKKDDAIDEVVYYTEEALNAMKGQSQEMEGRESLIYPVIRSTSFPEKSSAGVPLVFDGHTAETRIYYALDLGNTYRLIDEKMLEKEGWTKERIRETASFNLRSLQTVVKEDEVAGNHFYFFRANDGYDASRVLNESILAEYEKNAEGTLAVSIPHQDVLIIADIRNNAGYDILGQMSMSFFANGTVPITALSFLYEDGKLEPIFILAKNRPKK”, the “soluble on expression in E. coli” value was “not soluble”. With “GAMESEEPVFSLEQNRDDAMAALASTPTFQQTFINSISTQAMDLCKKYNLYPSVMIAQAALESNWGRSELGKAPNYNLFGIKGSYNGKSVTMKTWEYSDSKGWYQINANFAKYPSHKESLEDNAKKLRNGPSWDSSYYKGAWRENAKTYKDATAWLQGRYATDNTYASKLNTLISSYNLTQYD” the “soluble on expression in E. coli” value was “soluble”. With “ELPDFFQGKHFFLYGEFPGDERRKLIRYVTAFNGELEDYMSDRVQFVITAQEWDPSFEEALMDNPSLAFVRPRWIYSCNEKQKLLPHQLYGVVPQA” the “soluble on expression in E. coli” value was “soluble”. In the case of “MGSDKIHHHHHHENLYFQGMIKLIATDIDGTLVKDGSLLIDPEYMSVIDRLIDKGIIFVVCSGRQFSSEFKLFAPIKHKLLYITDGGTVVRTPKEILKTYPMDEDIWKGMCRMVRDELPACDYFAATPDFCFAEDGGSPIFHLLRDSYGFEMREVDDITRLDRNDIIKFTVFHPDKCEELCTPVFIPAWNKKAHLAAAGKEWVDCNAKGVSKWTALSYLIDRFDLLPDEVCCFGDNLNDIEMLQNAGISYAVSNARQEVIAAAKHTCAPYWENGVLSVLKSFL”, the “soluble on expression in E. coli” value was “soluble”. With “SKEDCLPSSHVPISDSKSIQKSELLGLLKTYNCYHEGKSFQLRHREEEGTLIIEGLLNIAWGLRRPIRLQMQDDREQVHLPSTSWMPRRPSCPLKEPSPQNGNITAQGPSIQPVHKAESSTDSSGPLEEAEEAPQLMRTKSDASCMSQRRPKCRAPGEAQRIRRHRFSINGHFYNHKTSVFTPAYGSVTNVRVNSTMTTLQVLTLLLNKFRVEDGPSEFALYIVHESGERTKLKDCEYPLISRILHGPCEKIARIFLMEADLGVEVPHEVAQYIKFEMPVLDSFVEKLKEEEEREIIKLTMKFQALRLTMLQRLEQLVEAK” the “soluble on expression in E. coli” value was “soluble”. For “MGSDKIHHHHHHMTEITTLSQFLTTAKTQFQVYDLGRRVQHIDMLAFHQIESLSTPYPYPIQGHAQFAIVFWDASQQHFIWFLKLALDEQGLLSPAPRSQFIEMILAALGQDPTQPLSDEQQERLANNPFNFKPSQEKLAVFNALVRKQLGQRASSQYEFAVQYLSGQVAPAQWQHIGMQGIADVCARANEFDHEQQLVSSFDTAAIEVQIALCQCLEHLLISDTLADKILAKLQDAAPEHQAYFLRALASSAKHSQQAFEHLHGQASLDTNALISIAGRNWSVLKQDSSRSLYLEALALQPQAFFNQVFADIVAIPSLRNQLLGELRNPNRSVQLSQAIGGLFKAASK”, the “soluble on expression in E. coli” value was “not soluble”. With “MIIHFTLNGAPQELTVNPGENVQKLLFNMGMHSVRNSDDGFGFAGSDAIIFNGNIVNASLLIAAQLEKADIRTAESLGKWNELSLVQQAMVDVGVVQSGYNDPAAALIITDLLDRIAAPTREEIDDALSGLFSRDAGWQQYYQVIELAVARKNNPQATIDIAPTFRDDLEVIGKHYPKTDAAKMVQAKPCYVEDRVTADACVIKMLRSPHAHALITHLDVSKAEALPGVVHVITHLNCPDIYYTPGGQSAPEPSPLDRRMFGKKMRHVGDRVAAVVAESEEIALEALKLIDVEYEVLKPVMSIDEAMAEDAPVVHDEPVVYVAGAPDTLEDDNSHAAQRGEHMIINFPIGSRPRKNIAASIHGHIGDMDKGFADADVIIERTYNSTQAQQCPTETHICFTRMDGDRLVIHASTQVPWHLRRQVARLVGMKQHKVHVIKERVGGGFGSKQDILLEEVCAWATCVTGRPVLFRYTREEEFIANTSRHVAKVTVKLGAKKDGRLTAVKMDFRANTGPYGNHSLTVPCNGPALSLPLYPCDNVDFQVTTYYSNICPNGAYQGYGAPKGNFAITMALAELAEQLQIDQLEIIERNRVHEGQELKILGAIGEGKAPTSVPSAASCALEEILRQGREMIQWSSPKPQNGDWHIGRGVAIIMQKSGIPDIDQANCMIKLESDGTFIVHSGGADIGTGLDTVVTKLAAEVLHCPPQDVHVISGDTDHALFDKGAYASSGTCFSGNAARLAAENLREKILFHGAQMLGEPVADVQLATPGVVRGKKGEVSFGDIAHKGETGTGFGSLVGTGSYITPDFAFPYGANFAEVAVNTRTGEIRLDKFYALLDCGTPVNPELALGQIYGATLRAIGHSMSEEIIYDAEGHPLTRDLRSYGAPKIGDIPRDFRAVLVPSDDKVGPFGAKSISEIGVNGAAPAIATAIHDACGIWLREWHFTPEKILTALEKI” the “soluble on expression in E. coli” value was “soluble”. For “MGSDKIHHHHHHMMKISFIIATLNSGGAERALVTLANALCKEHEVSIIKFHAGESFYKLENEVKVTSLEQFRFDTLYHKIASRFKKFFALRKALKESKSDVFISFLDTTNIACIAAKIGLKTPLIISEHSNEAYLKPKIWRFLRRVSYPFCDALSVLGSSDKVYYERFVKRVKLLLNPCHFSDEISFDSSFEKENLVLFIGRLDHNKNPVMFLKAIAHLDKNLQENYKFVIAGDGQLRQELEYKVKSLGIKVDFLGRVENVKALYEKAKVLCLCSFVEGLPTVLIESLYFEVCRISSSYYNGAKDLIKDNHDGLLVGCDDEIALAKKLELVLNDENFRKELVNNAKQRCKDFEISHIKEEWLKLIAEVKNA”, the “soluble on expression in E. coli” value was “not soluble”. With GSSANDWQCKTCSNVNWARRSECNMCNTPKYAK the “soluble on expression in E. coli” value was “soluble”.

Source: the DeepSol protein solubility set
